Data reported in patent US20220204580A1 (AstraZeneca / MedImmune, published 2022).
Numbered stars: 1 amine (or outer) side, 2 acyl side, 3 side chain; on linkers, the order of the positions; unused ones are H or OH. Bridge positions count the residues as written; N and C are the ends. Square brackets hold non-standard residues; d marks the D form. Side chains are listed from the residue outwards. Ends that are not written are not given here. * marks the point of attachment. C18 diacid = O=C(O)CCCCCCCCCCCCCCCCC(=O)*; γGlu = O=C(O)[C@H](CCC(=O)[*:2])N[*:1]; αMeF = C[C@](N)(Cc1ccccc1)C(=O)O; Dab = NCC[C@H](N)C(=O)O; Aib = CC(C)(N)C(=O)O

How the values were obtained:
[1] = biological target: T1, human amylin receptor (calcitonin receptor co-expressed with receptor activity modifying protein, RAMP3) (human, UniProt P30988 25-474; O60896 24-148); assay: cell-based or functional assay
T1 sequence (looked up) 1: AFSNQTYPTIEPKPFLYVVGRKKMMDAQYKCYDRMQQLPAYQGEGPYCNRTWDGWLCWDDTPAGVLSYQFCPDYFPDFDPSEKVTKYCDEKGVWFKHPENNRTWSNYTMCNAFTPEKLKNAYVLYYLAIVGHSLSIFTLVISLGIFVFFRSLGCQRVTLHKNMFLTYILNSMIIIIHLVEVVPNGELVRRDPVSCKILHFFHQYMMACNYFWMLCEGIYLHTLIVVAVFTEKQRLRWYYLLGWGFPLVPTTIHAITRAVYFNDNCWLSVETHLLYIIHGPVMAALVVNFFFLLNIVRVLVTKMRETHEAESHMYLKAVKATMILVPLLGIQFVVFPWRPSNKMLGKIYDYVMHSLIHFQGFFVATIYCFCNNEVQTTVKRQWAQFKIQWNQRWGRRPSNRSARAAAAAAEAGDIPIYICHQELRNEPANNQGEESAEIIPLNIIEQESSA
T1 sequence (looked up) 2: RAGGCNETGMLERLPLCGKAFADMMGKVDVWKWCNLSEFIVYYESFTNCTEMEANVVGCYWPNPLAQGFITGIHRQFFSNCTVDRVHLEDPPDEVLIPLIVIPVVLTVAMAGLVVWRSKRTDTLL

[2] = biological target: T2, human calcitonin receptor (human, UniProt P30988 25-474); assay: cell-based or functional assay
T2 sequence (looked up): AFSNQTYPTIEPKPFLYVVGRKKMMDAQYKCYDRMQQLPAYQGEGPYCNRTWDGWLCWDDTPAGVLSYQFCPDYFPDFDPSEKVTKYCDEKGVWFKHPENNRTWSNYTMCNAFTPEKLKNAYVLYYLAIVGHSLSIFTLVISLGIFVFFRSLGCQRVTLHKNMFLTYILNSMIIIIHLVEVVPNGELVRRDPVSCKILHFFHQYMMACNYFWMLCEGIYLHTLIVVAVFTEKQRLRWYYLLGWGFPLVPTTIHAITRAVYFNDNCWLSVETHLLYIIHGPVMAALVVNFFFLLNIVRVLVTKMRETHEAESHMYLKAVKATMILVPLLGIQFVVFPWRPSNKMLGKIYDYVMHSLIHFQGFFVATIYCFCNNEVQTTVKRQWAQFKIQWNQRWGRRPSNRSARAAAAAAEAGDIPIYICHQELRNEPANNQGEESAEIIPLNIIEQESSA

B1: Peptide 151 (SEQ ID NO: 151) (peptide)
peptide: K([γGlu-C18 diacid])CNTATCATQRLANFL[Aib]HSSNNFGPI[dL]PPTNVGSNTY-NH2
modifications: disulfide 2-7; N-terminus assumed
SMILES: CC[C@H](C)[C@H](NC(=O)[C@@H]1CCCN1C(=O)CNC(=O)[C@H](Cc1ccccc1)NC(=O)[C@H](CC(N)=O)NC(=O)[C@H](CC(N)=O)NC(=O)[C@H](CO)NC(=O)[C@H](CO)NC(=O)[C@H](Cc1c[nH]cn1)NC(=O)C(C)(C)NC(=O)[C@H](CC(C)C)NC(=O)[C@H](Cc1ccccc1)NC(=O)[C@H](CC(N)=O)NC(=O)[C@H](C)NC(=O)[C@H](CC(C)C)NC(=O)[C@H](CCCNC(=N)N)NC(=O)[C@H](CCC(N)=O)NC(=O)[C@@H](NC(=O)[C@H](C)NC(=O)[C@@H]1CSSC[C@H](NC(=O)[C@@H](N)CCCCNC(=O)CC[C@H](NC(=O)CCCCCCCCCCCCCCCCC(=O)O)C(=O)O)C(=O)N[C@@H](CC(N)=O)C(=O)N[C@@H]([C@@H](C)O)C(=O)N[C@@H](C)C(=O)N[C@@H]([C@@H](C)O)C(=O)N1)[C@@H](C)O)C(=O)N[C@H](CC(C)C)C(=O)N1CCC[C@H]1C(=O)N1CCC[C@H]1C(=O)N[C@H](C(=O)N[C@@H](CC(N)=O)C(=O)N[C@H](C(=O)NCC(=O)N[C@@H](CO)C(=O)N[C@@H](CC(N)=O)C(=O)N[C@H](C(=O)N[C@@H](Cc1ccc(O)cc1)C(N)=O)[C@@H](C)O)C(C)C)[C@@H](C)O
EC50 (cAMP production) [1]: 0.061 nM
Ratio (EC50 hCTR / EC50 hAMYR3) [1]: 14.7
EC50 (cAMP production) [2]: 0.898 nM

B2: Peptide 154 (SEQ ID NO: 154) (peptide)
peptide: K([γGlu-C18 diacid])KCNTATCATQRLANFL[Aib]HSSGNFGPILPPTNVGSNTY-NH2
modifications: disulfide 3-8; N-terminus assumed
SMILES: CC[C@H](C)[C@H](NC(=O)[C@@H]1CCCN1C(=O)CNC(=O)[C@H](Cc1ccccc1)NC(=O)[C@H](CC(N)=O)NC(=O)CNC(=O)[C@H](CO)NC(=O)[C@H](CO)NC(=O)[C@H](Cc1c[nH]cn1)NC(=O)C(C)(C)NC(=O)[C@H](CC(C)C)NC(=O)[C@H](Cc1ccccc1)NC(=O)[C@H](CC(N)=O)NC(=O)[C@H](C)NC(=O)[C@H](CC(C)C)NC(=O)[C@H](CCCNC(=N)N)NC(=O)[C@H](CCC(N)=O)NC(=O)[C@@H](NC(=O)[C@H](C)NC(=O)[C@@H]1CSSC[C@H](NC(=O)[C@H](CCCCN)NC(=O)[C@@H](N)CCCCNC(=O)CC[C@H](NC(=O)CCCCCCCCCCCCCCCCC(=O)O)C(=O)O)C(=O)N[C@@H](CC(N)=O)C(=O)N[C@@H]([C@@H](C)O)C(=O)N[C@@H](C)C(=O)N[C@@H]([C@@H](C)O)C(=O)N1)[C@@H](C)O)C(=O)N[C@@H](CC(C)C)C(=O)N1CCC[C@H]1C(=O)N1CCC[C@H]1C(=O)N[C@H](C(=O)N[C@@H](CC(N)=O)C(=O)N[C@H](C(=O)NCC(=O)N[C@@H](CO)C(=O)N[C@@H](CC(N)=O)C(=O)N[C@H](C(=O)N[C@@H](Cc1ccc(O)cc1)C(N)=O)[C@@H](C)O)C(C)C)[C@@H](C)O
EC50 (cAMP production) [1]: 0.574 nM
Ratio (EC50 hCTR / EC50 hAMYR3) [1]: 2.7
EC50 (cAMP production) [2]: 1.54 nM

B3: Peptide 16 (SEQ ID NO: 16) (peptide)
peptide: K([γGlu-C18 diacid])CNTATCATQRLANFLRHSSNN[αMeF]GPILPPTEVGSNTY-NH2
modifications: disulfide 2-7; N-terminus assumed
SMILES: CC[C@H](C)[C@H](NC(=O)[C@@H]1CCCN1C(=O)CNC(=O)[C@](C)(Cc1ccccc1)NC(=O)[C@H](CC(N)=O)NC(=O)[C@H](CC(N)=O)NC(=O)[C@H](CO)NC(=O)[C@H](CO)NC(=O)[C@H](Cc1c[nH]cn1)NC(=O)[C@H](CCCNC(=N)N)NC(=O)[C@H](CC(C)C)NC(=O)[C@H](Cc1ccccc1)NC(=O)[C@H](CC(N)=O)NC(=O)[C@H](C)NC(=O)[C@H](CC(C)C)NC(=O)[C@H](CCCNC(=N)N)NC(=O)[C@H](CCC(N)=O)NC(=O)[C@@H](NC(=O)[C@H](C)NC(=O)[C@@H]1CSSC[C@H](NC(=O)[C@@H](N)CCCCNC(=O)CC[C@H](NC(=O)CCCCCCCCCCCCCCCCC(=O)O)C(=O)O)C(=O)N[C@@H](CC(N)=O)C(=O)N[C@@H]([C@@H](C)O)C(=O)N[C@@H](C)C(=O)N[C@@H]([C@@H](C)O)C(=O)N1)[C@@H](C)O)C(=O)N[C@@H](CC(C)C)C(=O)N1CCC[C@H]1C(=O)N1CCC[C@H]1C(=O)N[C@H](C(=O)N[C@@H](CCC(=O)O)C(=O)N[C@H](C(=O)NCC(=O)N[C@@H](CO)C(=O)N[C@@H](CC(N)=O)C(=O)N[C@H](C(=O)N[C@@H](Cc1ccc(O)cc1)C(N)=O)[C@@H](C)O)C(C)C)[C@@H](C)O
EC50 (cAMP production) [1]: 0.221 nM
Ratio (EC50 hCTR / EC50 hAMYR3) [1]: 9
EC50 (cAMP production) [2]: 2.02 nM

B4: Peptide 148 (SEQ ID NO: 148) (peptide)
peptide: K([γGlu-C18 diacid])KCNTATCATQRLANFL[Aib]HSSNNFGPILPPTNVGPNTY-NH2
modifications: disulfide 3-8; N-terminus assumed
SMILES: CC[C@H](C)[C@H](NC(=O)[C@@H]1CCCN1C(=O)CNC(=O)[C@H](Cc1ccccc1)NC(=O)[C@H](CC(N)=O)NC(=O)[C@H](CC(N)=O)NC(=O)[C@H](CO)NC(=O)[C@H](CO)NC(=O)[C@H](Cc1c[nH]cn1)NC(=O)C(C)(C)NC(=O)[C@H](CC(C)C)NC(=O)[C@H](Cc1ccccc1)NC(=O)[C@H](CC(N)=O)NC(=O)[C@H](C)NC(=O)[C@H](CC(C)C)NC(=O)[C@H](CCCNC(=N)N)NC(=O)[C@H](CCC(N)=O)NC(=O)[C@@H](NC(=O)[C@H](C)NC(=O)[C@@H]1CSSC[C@H](NC(=O)[C@H](CCCCN)NC(=O)[C@@H](N)CCCCNC(=O)CC[C@H](NC(=O)CCCCCCCCCCCCCCCCC(=O)O)C(=O)O)C(=O)N[C@@H](CC(N)=O)C(=O)N[C@@H]([C@@H](C)O)C(=O)N[C@@H](C)C(=O)N[C@@H]([C@@H](C)O)C(=O)N1)[C@@H](C)O)C(=O)N[C@@H](CC(C)C)C(=O)N1CCC[C@H]1C(=O)N1CCC[C@H]1C(=O)N[C@H](C(=O)N[C@@H](CC(N)=O)C(=O)N[C@H](C(=O)NCC(=O)N1CCC[C@H]1C(=O)N[C@@H](CC(N)=O)C(=O)N[C@H](C(=O)N[C@@H](Cc1ccc(O)cc1)C(N)=O)[C@@H](C)O)C(C)C)[C@@H](C)O
EC50 (cAMP production) [1]: 0.191 nM
Ratio (EC50 hCTR / EC50 hAMYR3) [1]: 3.8
EC50 (cAMP production) [2]: 0.728 nM

B5: Peptide 150 (SEQ ID NO: 150) (peptide)
peptide: K([γGlu-C18 diacid])CNTATCATQRLANFL[Aib]HSS[Dab]NFGPILPPTNVGSNTY-NH2
modifications: disulfide 2-7; N-terminus assumed
SMILES: CC[C@H](C)[C@H](NC(=O)[C@@H]1CCCN1C(=O)CNC(=O)[C@H](Cc1ccccc1)NC(=O)[C@H](CC(N)=O)NC(=O)[C@H](CCN)NC(=O)[C@H](CO)NC(=O)[C@H](CO)NC(=O)[C@H](Cc1c[nH]cn1)NC(=O)C(C)(C)NC(=O)[C@H](CC(C)C)NC(=O)[C@H](Cc1ccccc1)NC(=O)[C@H](CC(N)=O)NC(=O)[C@H](C)NC(=O)[C@H](CC(C)C)NC(=O)[C@H](CCCNC(=N)N)NC(=O)[C@H](CCC(N)=O)NC(=O)[C@@H](NC(=O)[C@H](C)NC(=O)[C@@H]1CSSC[C@H](NC(=O)[C@@H](N)CCCCNC(=O)CC[C@H](NC(=O)CCCCCCCCCCCCCCCCC(=O)O)C(=O)O)C(=O)N[C@@H](CC(N)=O)C(=O)N[C@@H]([C@@H](C)O)C(=O)N[C@@H](C)C(=O)N[C@@H]([C@@H](C)O)C(=O)N1)[C@@H](C)O)C(=O)N[C@@H](CC(C)C)C(=O)N1CCC[C@H]1C(=O)N1CCC[C@H]1C(=O)N[C@H](C(=O)N[C@@H](CC(N)=O)C(=O)N[C@H](C(=O)NCC(=O)N[C@@H](CO)C(=O)N[C@@H](CC(N)=O)C(=O)N[C@H](C(=O)N[C@@H](Cc1ccc(O)cc1)C(N)=O)[C@@H](C)O)C(C)C)[C@@H](C)O
EC50 (cAMP production) [1]: 0.179 nM
Ratio (EC50 hCTR / EC50 hAMYR3) [1]: 23.4
EC50 (cAMP production) [2]: 4.18 nM

B6: Peptide 147 (SEQ ID NO: 147) (peptide)
peptide: K([γGlu-C18 diacid])KCNTATCATQRLANFL[Aib]HSSNHFGPILPPTNVGSETY-NH2
modifications: disulfide 3-8; N-terminus assumed
SMILES: CC[C@H](C)[C@H](NC(=O)[C@@H]1CCCN1C(=O)CNC(=O)[C@H](Cc1ccccc1)NC(=O)[C@H](Cc1c[nH]cn1)NC(=O)[C@H](CC(N)=O)NC(=O)[C@H](CO)NC(=O)[C@H](CO)NC(=O)[C@H](Cc1c[nH]cn1)NC(=O)C(C)(C)NC(=O)[C@H](CC(C)C)NC(=O)[C@H](Cc1ccccc1)NC(=O)[C@H](CC(N)=O)NC(=O)[C@H](C)NC(=O)[C@H](CC(C)C)NC(=O)[C@H](CCCNC(=N)N)NC(=O)[C@H](CCC(N)=O)NC(=O)[C@@H](NC(=O)[C@H](C)NC(=O)[C@@H]1CSSC[C@H](NC(=O)[C@H](CCCCN)NC(=O)[C@@H](N)CCCCNC(=O)CC[C@H](NC(=O)CCCCCCCCCCCCCCCCC(=O)O)C(=O)O)C(=O)N[C@@H](CC(N)=O)C(=O)N[C@@H]([C@@H](C)O)C(=O)N[C@@H](C)C(=O)N[C@@H]([C@@H](C)O)C(=O)N1)[C@@H](C)O)C(=O)N[C@@H](CC(C)C)C(=O)N1CCC[C@H]1C(=O)N1CCC[C@H]1C(=O)N[C@H](C(=O)N[C@@H](CC(N)=O)C(=O)N[C@H](C(=O)NCC(=O)N[C@@H](CO)C(=O)N[C@@H](CCC(=O)O)C(=O)N[C@H](C(=O)N[C@@H](Cc1ccc(O)cc1)C(N)=O)[C@@H](C)O)C(C)C)[C@@H](C)O
EC50 (cAMP production) [1]: 0.802 nM
Ratio (EC50 hCTR / EC50 hAMYR3) [1]: 1.9
EC50 (cAMP production) [2]: 1.51 nM
